For assay [1], the target named is hen egg lysozyme (hen) (UniProt P00698). Briefly: 125I-labeled scFv loaded on an antigen column, counting of flow-through and eluate.
Assay [2] shares this target. Briefly: affinity chromatography of the Cy5 conjugate on an antigen column.
The target in assay [3] is T1, recombinant ED-B domain of fibronectin (UniProt P02751 1266-1356, biotinylated (biotin disulfide N-hydroxysuccinimide ester) in ELISA and ECL competition; Cy5 at the N-terminal extremity in the band-shift assay).
T1 construct: domain: ED-B; Recombinant fragment as in Carnemolla et al. 1996; also called biotinylated ED-B; ED-B-biotin
T1 sequence (P02751 1266-1356 limits assumed): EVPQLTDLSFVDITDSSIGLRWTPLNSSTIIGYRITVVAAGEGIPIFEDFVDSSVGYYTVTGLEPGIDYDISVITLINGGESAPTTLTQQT
Description: SPR (BIAcore). The method, then: (§1) After loading, the column was washed with 50 ml of equilibration buffer (PBS, 1 mM EDTA, 0.5 M NaCl). Antibody fragments were then eluted with triethylamine 100 mM, immediately neutralised with 1M Hepes, pH 7, and dialysed against PBS, Affinity measurements by BlAcore were performed with purified antibodies as described (Neri et al. (1997). Nature Biotechnol., 15 1271-1275) [FIG. 4]. Band-shift analysis was performed as described (Neri et al. (1996). Nature Biotechnology, 14, 385-390), using recombinant ED-B fluorescently labeled at the N-terminal extremity (Carnemolla et al. (1996). lnt. J. Cancer, 68, 397-405, Neri et al. (1997). Nature Biotechnol., 15 1271-1275) with the infrared fluorophore Cy5 (Amersham) [FIG. 4]. […] We therefore peformed measurements of the kinetic dissociation constant koff by competition experiments (Neri et al. (1996), Trends in Biotechnol., 14, 465-470) [FIG. 4]. […] Streptavidin-coated dynabeads, diluted in Origen Assay Buffer (Deaver, D. R. (1995). Nature, 377, 758-760) were then added (20 μl, 1 mg/ml), and the resulting mixtures analysed with a ORIGEN Analyzer (IGEN Inc. Gaithersburg, Md. USA).
Background: In SPR one partner is held on a chip, and binding of the other changes the refractive index at the surface.

Assay [4] has as its target T1, recombinant ED-B domain of fibronectin. Description: SPR (BIAcore), purified scFv. As for the experimental part:
as §1, with “Meth., 206, 171-182) and affinity purified onto a CNBr-activated sepharose column (Pharmacia, Uppsala, Sweden), which had been coupled with 10 mg of ED-B containing 7B89 recombinant protein (Carnemolla et al. (1996). lnt. J. Cancer, 68, 397-405). After” for “After”, “USA). […]” for “USA).”

For assay [5] the target is unchanged. Briefly: Kd = koff/kon, koff from ECL competition, kon from BIAcore. The method, then:
as §1, with “J. Cancer, 68, 397-405). After” for “After”, “USA). […]” for “USA).”

The target is the same in assay [6]. Briefly: competition of scFv-(ED-B-biotin) complex with unbiotinylated ED-B, electrochemiluminescent detection (Origen). The method, then: as §1, with “J. Cancer, 68, 397-405). After” for “After”, “USA). […]” for “USA).”

hen egg lysozyme (hen), sequence (P00698 19-147): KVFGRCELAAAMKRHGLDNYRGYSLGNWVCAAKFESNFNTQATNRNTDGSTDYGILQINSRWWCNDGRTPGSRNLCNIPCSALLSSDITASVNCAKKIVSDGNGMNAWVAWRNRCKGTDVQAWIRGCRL

In assay [1], scFv(D1.3) came in with an immunoreactivity of 80%.

In turn, scFv(HyHEL-10) returned an immunoreactivity in assay [2] of more than 78%.

B1: scFv L19 (high-affinity anti-ED-B human scFv antibody fragment) (scFv)
scFv: EVQLLESGGGLVQPGGSLRLSCAASGFTFSSFSMSWVRQAPGKGLEWVSSISGSSGTTYYADSVKGRFTISRDNSKNTLYLQMNSLRAEDTAVYYCAKPFPYFDYWGQGTLVTVSSGDGSSGGSGGASTGEIVLTQSPGTLSLSPGERATLSCRASQSVSSSYLAWYQQKPGQAPRLLIYYASSRATGIPDRFSGSGSGTDFTLTISRLEPEDFAVYYCQQTGRIPPTFGQGTKVEIKDDDSDDDYKDDDDKHHHHHH
notes: T0005 (VH, linker, VL) is not labelled L19 itself; also called antibody L19
For B1, the koff (commonly the rate constant with which the complex falls apart) in assay [3] turned out to be 9.6e-05 s⁻¹; in assay [6] it was 6e-06 s⁻¹. Moreover, the kon (commonly the second-order rate constant of association) in assay [4] was determined as 110000 M⁻¹ s⁻¹. The Kd – broadly, the concentration at which binding is half-saturated – in assay [5] worked out at 0.054 nM.

(Values after patent US20070189963A1 (EIDGENOSSISCHE TECHNISCHE HOCHSCHULE ZURICH, published 2007).)
